# Like-named read-outs stand apart in the source and are kept apart here.
# T1: Ets-1 ΔN301 (murine, UniProt P27577 301-440)
# T1 sequence: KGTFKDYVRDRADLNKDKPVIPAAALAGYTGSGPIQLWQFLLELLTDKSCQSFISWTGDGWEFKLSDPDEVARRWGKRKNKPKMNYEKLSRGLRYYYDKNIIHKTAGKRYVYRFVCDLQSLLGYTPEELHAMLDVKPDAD
# T2: Ets-1 ΔN279 (murine, UniProt P27577 279-440)
# T2 sequence: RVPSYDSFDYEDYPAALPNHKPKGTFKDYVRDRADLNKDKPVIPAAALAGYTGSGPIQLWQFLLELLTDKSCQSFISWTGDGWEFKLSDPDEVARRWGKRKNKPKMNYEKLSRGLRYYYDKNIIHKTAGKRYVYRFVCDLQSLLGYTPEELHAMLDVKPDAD
# B1: DNASP9 (dsDNA)
# DNA 1: GCCGGAAGT
# DNA 2: ACTTCCGGC
# B2: DNASP12 (dsDNA)
# DNA 1: CAGCCGGAAGTG
# DNA 2: CACTTCCGGCTG
# B3: DNANSP15 (dsDNA)
# DNA 1: GATGCAGTGTAGTCG
# DNA 2: CGACTACACTGCATC
# B4: DNANSP9 (dsDNA)
# DNA 1: GCACTCTAG
# DNA 2: CTAGAGTGC
# B5: DNASP14 (dsDNA)
# DNA 1: CCAAGCCGGAAGTG
# DNA 2: CACTTCCGGCTTGG
# Tests used:
# Assay in all cases: NMR 15N-HSQC titration
# Ets-1 ΔN301 [1] = target: T1, Ets-1 ΔN301
# Ets-1 ΔN301 [2] = target: T1, Ets-1 ΔN301; remark: listed apart in the source
# Ets-1 ΔN301 [3] = target: T1, Ets-1 ΔN301; remark: listed apart in the source
# Ets-1 ΔN301 [4] = target: T1, Ets-1 ΔN301; remark: listed apart in the source
# Ets-1 ΔN279 = target: T2, Ets-1 ΔN279
binder,measurement,setting,value
B1,binding result,Ets-1 ΔN301 [1],binds
B2,binding result,Ets-1 ΔN301 [2],binds
B3,Kd,Ets-1 ΔN301 [3],< 10 µM
B4,Kd,Ets-1 ΔN301 [4],~10 µM
B5,binding result,Ets-1 ΔN279,binds
